Test [1] deals with T1, human FOLR1 endogenously expressed on tumor cell lines (human, UniProt P15328 25-234). Briefly: cell-based or functional assay.
The target in test [2] is T2, CD16A endogenously expressed on primary human NK cells (human, UniProt P08637 17-254). Briefly: flow cytometry on primary human NK cells, with against without 10 mg/mL polyclonal human IgG. As to the method: (§1) 4° C., and resuspended in 50 μL/well of diluted antibody constructs. […] After 40-50 minutes' incubation at 37° C., cells were washed 3-times with ice-cold FACS buffer. […] After the final incubation step, cells were washed 2-times with ice-cold FACS buffer, and the cell pellet was resuspended in 50 μL FACS buffer. Fluorescence intensity of >1×10⁴ viable cells was analyzed by flow cytometry and the median fluorescence intensity (MFI) was determined for each sample.
T2 sequence (P08637 17-254 limits assumed): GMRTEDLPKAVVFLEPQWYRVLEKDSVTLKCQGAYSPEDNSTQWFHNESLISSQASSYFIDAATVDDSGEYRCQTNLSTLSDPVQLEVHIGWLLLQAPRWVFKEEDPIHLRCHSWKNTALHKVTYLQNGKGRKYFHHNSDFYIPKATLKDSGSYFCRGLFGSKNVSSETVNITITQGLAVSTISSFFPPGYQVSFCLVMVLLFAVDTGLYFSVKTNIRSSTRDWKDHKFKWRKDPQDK
(§2) Equilibrium dissociation constants (KD) of antibody binding were calculated by plotting MFI values and fitting a non-linear regression model for one-site binding to hyperbolic dose-response curves using GraphPad Prism.

In test [3] the target is T2, CD16A endogenously expressed on primary …. Briefly: flow cytometry on primary human NK cells, biotinylated antibody, 37 C, without IgG, mean of 4. Here is the method:
as §1, §2

For test [4], the target named is T1, human FOLR1 endogenously expressed on …. The test can be described thus: flow cytometry on IGROV-1 cells (FOLR1 high) at 37 °C, FITC anti-human IgG detection. As to the method:
Cells were collected and centrifuged at 400×g, 5 min, 4° C. Cell pellets were resuspended in FACS buffer (PBS (Invitrogen, cat.: 392-0434) containing 2% h.i. FCS (Invitrogen, cat.: 10500-064), and 0.1% sodium azide (Sigma, cat.: S8032)) at 1-5×10⁶ cells/mL. 100 μL/well of the cell suspension were transferred into U-shaped, 96-well micro plates (0.1-0.5×10⁶ cells per well), cells were pelleted at 400×g, 5 min, 4° C., and resuspended in 100 μL/well of serial dilutions of the indicated antibodies in FACS buffer. After 40-50 min incubation at 37° C., cells were washed 3-times with ice-cold FACS buffer. […] After the final incubation step, cells were washed 2-times with ice-cold FACS buffer, and the cell pellet was resuspended in 100 μL FACS buffer. Fluorescence intensities of >1×10⁴ viable cells were analyzed by flow cytometry and the median fluorescence intensity (MFI) was determined for each sample.

Test [5] addresses T2, CD16A endogenously expressed on primary …. The test can be described thus: flow cytometry on primary human NK cells, biotinylated antibody, 37 C, with 10 mg/mL polyclonal human IgG as competitor, mean of 4. Here is the method:
as §1, §2

Test [6] shares this target. The test can be described thus: flow cytometry on primary human NK cells at 37 °C, biotinylated antibody, streptavidin-FITC, without polyclonal human IgG. As to the method:
(§3) Frozen NK cells were thawed, and viability was determined with trypan blue (Sigma-Aldrich, cat.: T8154). Cells have been centrifuged at 400×g, 5 min, 4° C. Cell pellets were resuspended in FACS buffer PBS (Invitrogen, cat.: 392-0434) containing 2% h.i. FCS (Invitrogen, cat.: 10500-064), and 0.1% sodium azide (Sigma, cat.: S8032) at 2×10⁶ cells/mL. 100 μL/well of the cell suspension were transferred into U-shaped 96 well plates, cells were pelleted at 400×g, 5 min. 4° C., and resuspended in 50 μL/well of diluted antibody constructs. […] After 40-50 minutes' incubation at 37° C., cells were washed 3-times with ice-cold FACS buffer. […] After the final incubation step, cells were washed 2-times with ice-cold FACS buffer, and the cell pellet was resuspended in 50 μL FACS buffer. Fluorescence intensity of >1×10⁴ viable cells was analyzed by flow cytometry and the median fluorescence intensity (MFI) was determined for each sample.

The target is the same in test [7]. Briefly: flow cytometry on primary human NK cells at 37 °C, biotinylated antibody, streptavidin-FITC, in the presence of 10 mg/mL polyclonal human IgG (competitor). Here is the method:
as §3

The target in test [8] is T3, recombinant human CD16A^158V, biotinylated, mFc.silenced/Avi-tagged (human, UniProt P08637 17-208, biotinylated (Avi-tag)).
T3 construct: also called CD16^158V
T3 sequence (P08637 17-208 F176V limits assumed): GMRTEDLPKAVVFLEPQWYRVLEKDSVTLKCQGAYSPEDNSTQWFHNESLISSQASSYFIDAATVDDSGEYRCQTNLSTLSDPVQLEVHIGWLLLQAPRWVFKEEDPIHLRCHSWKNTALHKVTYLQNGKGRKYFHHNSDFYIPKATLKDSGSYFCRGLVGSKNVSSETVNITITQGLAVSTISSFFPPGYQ
Briefly: SPR (Biacore T200), 37 °C, multivalent multi-cycle kinetics, biotin-captured antigen as ligand, construct as analyte, 1:1 binding model, n=3. Here is the method:
(§4) For multivalent interaction analysis, biotinylated-mFc.silenced/Avi-tagged antigens were captured (FC2, FC4) to a density of 120-200RU, before CD123×CD16A ICE were injected (concentration: 0-60 nM) for 240s at a flow rate of 40 μL/min and complex was left to dissociate for 300s at the same flow rate.
(§5) After each cycle, chip surfaces were regenerated with 6M guanidine-HCl, 0.25M NaOH and reloaded with Biotin Capture reagent. Interaction kinetics were determined by fitting data from multi-cycle kinetics experiments to a simple 1:1 interaction model using the local data analysis option (Rmax and RI) available within Biacore T200 Evaluation Software (v3.1). Referencing was done against a flow cell without captured ligand (Fc2-Fc1, Fc4-Fc3).

Test [9] concerns the target recombinant human CD16A^158F, biotinylated, mFc.silenced/Avi-tagged (human, UniProt P08637 17-208, biotinylated (Avi-tag)). The test is described as above. As to the method: as §4, §5
Test [10] addresses recombinant cynomolgus CD16, biotinylated, mFc.silenced/Avi-tagged (cynomolgus, UniProt Q8SPW2 17-208, biotinylated (Avi-tag)). The test is described as above. Here is the method:
as §4, §5

T1 sequence (P15328 25-234): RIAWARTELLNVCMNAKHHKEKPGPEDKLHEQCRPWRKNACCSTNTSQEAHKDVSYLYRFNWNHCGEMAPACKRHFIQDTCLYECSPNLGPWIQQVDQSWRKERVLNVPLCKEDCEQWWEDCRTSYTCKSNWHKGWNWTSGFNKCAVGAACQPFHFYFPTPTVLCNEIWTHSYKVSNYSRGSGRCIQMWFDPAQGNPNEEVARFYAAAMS
Sequence of recombinant human CD16A^158F, biotinylated, mFc.silenced/Avi-tagged (P08637 17-208): as the sequence (P08637 17-208 F176V limits assumed) above, with V160F counted along it
Sequence of recombinant cynomolgus CD16, biotinylated, mFc.silenced/Avi-tagged (Q8SPW2 17-208): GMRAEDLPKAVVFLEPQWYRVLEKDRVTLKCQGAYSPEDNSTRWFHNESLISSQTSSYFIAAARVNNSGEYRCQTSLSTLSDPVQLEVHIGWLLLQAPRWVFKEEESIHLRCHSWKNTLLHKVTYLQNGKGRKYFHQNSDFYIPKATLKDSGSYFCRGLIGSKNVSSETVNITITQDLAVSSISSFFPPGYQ

B1: scFv-IgAb_444 (RSV×CD16A) (bispecific antibody)
chain 1: QVTLRESGPALVKPTQTLTLTCTFSGFSLSTAGMSVGWIRQPPGKALEWLADIWWDDKKHYNPSLKDRLTISKDTSKNQVVLKVTNMDPADTATYYCARDMIFNFYFDVWGQGTTVTVSSASTKGPSVFPLAPSSKSTSGGTAALGCLVKDYFPEPVTVSWNSGALTSGVHTFPAVLQSSGLYSLSSVVTVPSSSLGTQTYICNVNHKPSNTKVDKKVEPKSCDKTHTCPPCPAPEFEGGPSVFLFPPKPKDTLMISRTPEVTCVVVAVSHEDPEVKFNWYVDGVEVHNAKTKPREEQYNSTYRVVSVLTVLHQDWLNGKEYKCKVSNKALPAPIEKTISKAKGQPREPQVYTLPPSREEMTKNQVSLTCLVKGFYPSDIAVEWESNGQPENNYKTTPPVLDSDGSFFLYSKLTVDKSRWQQGNVFSCSVMHEALHNHYTQKSLSLSPGGGGGSGGGGSGGGGSGGGGSGGGGSGGGGSSYELTQPLSVSVALGQTARITCGGNNIGSKSVHWYQQKPGQAPVLVIYQDKKRPSGIPERFSGSNSGNTATLTISRAQAGDEADYYCQVWDDYIVLFGCGTKLTVLGGSGGSGGSGGSGGSGGSGGSQVQLVQSGAEVKKPGASVKVSCKASGYTFTNYYMQWVRQAPGQCLEWMGIINPSGGVTSYAQKFQGRVTMTRDTSTSTVYMELSSLRSEDTAVYYCARGSAYYYDFADYWGQGTLVTVSSG
chain 2: DIQMTQSPSTLSASVGDRVTITCSASSRVGYMHWYQQKPGKAPKLLIYDTSKLASGVPSRFSGSGSGTEFTLTISSLQPDDFATYYCFQGSGYPFTFGGGTKVEIKRTVAAPSVFIFPPSDEQLKSGTASVVCLLNNFYPREAKVQWKVDNALQSGNSQESVTEQDSKDSTYSLSSTLTLSKADYEKHKVYACEVTHQGLSSPVTKSFNRGEC
notes: also called RSV/CD16A scFv-IgAb_444; RSV(NIST)×CD16A
Take B1: in test [1], the “Phagocytosis [%], 4 h ADCP, DK-MG cells” value is 0%; the “Phagocytosis [%], 4 h ADCP, HCC-78 cells” value stood at 0%; the “Phagocytosis [%], 4 h ADCP, HeLa cells” value stood at 0%. The “fold loss in KD induced by IgG” value in [2] was determined as 5 fold. In addition, the Kd in test [3] was found to be 3.8 nM. In [4], the binding result is reported as “no binding (tested: about 500 nM)”. In test [5], this molecule yielded a Kd of 19.9 nM. In addition, the “EC50 (read off the curve)” value in test [6] was ~4 nM. The concentration giving a half-maximal response (EC50 (read off the curve)) in test [7] lay in the range of 10 to 20 nM.

B2: scFv-IgAb_264 (CD123-2×CD16a2) (bispecific antibody)
chain 1: QVQLVQSGAEVKKPGASVKMSCKASGYTFTDYYMKWVKQAPGQGLEWIGDIIPSNGATFYNQKFKGKATLTVDRSISTAYMHLNRLRSDDTAVYYCTRSHLLRASWFAYWGQGTLVTVSSASTKGPSVFPLAPSSKSTSGGTAALGCLVKDYFPEPVTVSWNSGALTSGVHTFPAVLQSSGLYSLSSVVTVPSSSLGTQTYICNVNHKPSNTKVDKKVEPKSCDKTHTCPPCPAPEFEGGPSVFLFPPKPKDTLMISRTPEVTCVVVAVSHEDPEVKFNWYVDGVEVHNAKTKPREEQYNSTYRVVSVLTVLHQDWLNGKEYKCKVSNKALPAPIEKTISKAKGQPREPQVYTLPPSREEMTKNQVSLTCLVKGFYPSDIAVEWESNGQPENNYKTTPPVLDSDGSFFLYSKLTVDKSRWQQGNVFSCSVMHEALHNHYTQKSLSLSPGGGGGSGGGGSGGGGSGGGGSGGGGSGGGGSSYELTQPLSVSVALGQTARITCGGHNIGSKNVHWYQQKPGQAPVLVIYQDNKRPSGIPERFSGSNSGNTATLTISRAQAGDEADYYCQVWDNYNVLFGCGTKLTVLGGSGGSGGSGGSGGSGGSGGSQVQLVQSGAEVKKPGASVKVSCKASGYTFTSYYMHWVRQAPGQCLEWMGAIEPRYGSTSYAQKFQGRVTMTRDTSTSTVYMELSSLRSEDTAVYYCARGSAYYYDFADYWGQGTLVTVSS
chain 2: not shown
notes: also called scFv-IgAb_264 (CD16a1×CD123-2); CD123-1×CD16a2 scFv-IgAb_264
Consider B2, for which, in test [8], the Kd was found to be 0.43 nM, the koff came to 0.0027 s⁻¹ and the kon came out at 6.3e+06 M⁻¹ s⁻¹. In test [9], the dissociation constant Kd was 0.567 nM, the koff stood at 0.0036 s⁻¹ and the kon was found to be 6.4e+06 M⁻¹ s⁻¹. In [10], the Kd is 2.4 nM, the koff came out at 0.013 s⁻¹ and the kon stood at 5.2e+06 M⁻¹ s⁻¹.

The record behind these values is patent publication US20240417475A1 (AFFIMED, published 2024).
